The target of test [1] is CD28 (human) (UniProt P10747). The test can be described thus: flow cytometry, transfected cells. A general note: Flow cytometry measures light scatter and fluorescence of single cells or particles in a stream.
Test [2] has as its target CTLA-4 (Homo sapiens (Human)) (UniProt P16410). Briefly: flow cytometry, transfected cells.
Substrate in test [3]: ICOS (Homo sapiens (Human)) (UniProt Q9Y6W8)
Briefly: flow cytometry, transfected cells.

Test [4] concerns the target CD28 (human) (UniProt P10747). The test can be described thus: flow cytometry, cells expressing CD28.
The target in a further test is PD-L1 (human). Briefly: flow cytometry, cells expressing PD-L1.
Another test deals with CTLA-4 (human). The test can be described thus: flow cytometry, cells expressing CTLA-4.

15 molecules from patent publication US20250163127A1 can be followed below.

CTLA-4 (human), sequence (chain, as listed by the source): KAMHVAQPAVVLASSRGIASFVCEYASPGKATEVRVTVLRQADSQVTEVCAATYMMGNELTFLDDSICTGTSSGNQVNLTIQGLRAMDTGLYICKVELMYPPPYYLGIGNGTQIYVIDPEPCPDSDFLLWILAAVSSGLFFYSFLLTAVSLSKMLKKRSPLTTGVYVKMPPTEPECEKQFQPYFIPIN
PD-L1 (human), sequence (chain, as listed by the source): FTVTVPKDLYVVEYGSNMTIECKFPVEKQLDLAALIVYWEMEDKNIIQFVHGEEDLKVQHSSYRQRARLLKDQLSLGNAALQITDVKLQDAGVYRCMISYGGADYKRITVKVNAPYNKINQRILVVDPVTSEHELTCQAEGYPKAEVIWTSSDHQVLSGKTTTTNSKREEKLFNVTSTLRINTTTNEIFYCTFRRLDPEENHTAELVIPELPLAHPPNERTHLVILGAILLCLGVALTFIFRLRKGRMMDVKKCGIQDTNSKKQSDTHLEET
ICOS (Homo sapiens (Human)), sequence (Q9Y6W8 21-199 limits assumed): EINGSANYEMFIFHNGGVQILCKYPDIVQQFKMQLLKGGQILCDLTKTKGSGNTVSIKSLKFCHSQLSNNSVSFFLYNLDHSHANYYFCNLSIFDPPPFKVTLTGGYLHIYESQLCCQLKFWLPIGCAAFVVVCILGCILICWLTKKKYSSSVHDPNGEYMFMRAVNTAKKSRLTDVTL

B1: ICOSL-Fc N52G/N57V/Q100G (Fc fusion)
chain: DTQEKEVRAMVGSDVELSCACPEGSRFDLNDVYVYWQTSESKTVVTYHIPQGSSLEVVDSRYRNRALMSPAGMLRGDFSLRLFNVTPQDEQKFHCLVLSGSLGFQEVLSVEVTLHVAANFSVPVVSAPHSPSQDELTFTCTSINGYPRPNVYWINKTDNSLLDQALQNDTVFLNMRGLYDVVSVLRIARTPSVNIGCCIENVLLQQNLTVGSQTGNDIGERDKITENPVSTGEKNAAT
Turning to B1, the MFI worked out at 23700 MFI with CD28 (human) [1], 14700 MFI in test [2] and 260000 MFI in test [3]. For the same molecule, the MFI ratio to WT (ΔWT) with CD28 (human) [1] is 1.1 fold; in test [2], 0.04 fold; in test [3], 1.23 fold.

B2: ICOSL-Fc N52L/N57V (Fc fusion)
chain: DTQEKEVRAMVGSDVELSCACPEGSRFDLNDVYVYWQTSESKTVVTYHIPQLSSLEVVDSRYRNRALMSPAGMLRGDFSLRLFNVTPQDEQKFHCLVLSQSLGFQEVLSVEVTLHVAANFSVPVVSAPHSPSQDELTFTCTSINGYPRPNVYWINKTDNSLLDQALQNDTVFLNMRGLYDVVSVLRIARTPSVNIGCCIENVLLQQNLTVGSQTGNDIGERDKITENPVSTGEKNAAT
In the case of B2, the results for the MFI (in the test with CD28 (human) [1]; in test [2]; in test [3]) were 54800 MFI, 151000 MFI and 257000 MFI, respectively. Also, the MFI ratio to WT (ΔWT) worked out at 2.5 fold in the test with CD28 (human) [1], 0.46 fold in test [2] and 1.21 fold in test [3].

B3: ICOSL-Fc N52P/N57S/Q100G (Fc fusion)
chain: DTQEKEVRAMVGSDVELSCACPEGSRFDLNDVYVYWQTSESKTVVTYHIPQPSSLESVDSRYRNRALMSPAGMLRGDFSLRLFNVTPQDEQKFHCLVLSGSLGFQEVLSVEVTLHVAANFSVPVVSAPHSPSQDELTFTCTSINGYPRPNVYWINKTDNSLLDQALQNDTVFLNMRGLYDVVSVLRIARTPSVNIGCCIENVLLQQNLTVGSQTGNDIGERDKITENPVSTGEKNAAT
On to B3, for which the MFI in the test with CD28 (human) [1] was 6800 MFI; in test [2], 5050 MFI; in test [3], 143000 MFI. Moreover, the results for the MFI ratio to WT (ΔWT) (with CD28 (human) [1]; in test [2]; in test [3]) were 0.3 fold, 0.02 fold and 0.68 fold, respectively.

B4: ICOSL-Fc N57Q/Q100P (Fc fusion)
chain: DTQEKEVRAMVGSDVELSCACPEGSRFDLNDVYVYWQTSESKTVVTYHIPQNSSLEQVDSRYRNRALMSPAGMLRGDFSLRLFNVTPQDEQKFHCLVLSPSLGFQEVLSVEVTLHVAANFSVPVVSAPHSPSQDELTFTCTSINGYPRPNVYWINKTDNSLLDQALQNDTVFLNMRGLYDVVSVLRIARTPSVNIGCCIENVLLQQNLTVGSQTGNDIGERDKITENPVSTGEKNAAT
Turning to B4, the MFI was 15200 MFI with CD28 (human) [1], 69100 MFI in test [2] and 205000 MFI in test [3]. The MFI ratio to WT (ΔWT) was found to be 0.7 fold with CD28 (human) [1], 0.21 fold in test [2] and 0.97 fold in test [3].

B5: ICOSL-Fc N52V/N57T/Q100L (Fc fusion)
chain: DTQEKEVRAMVGSDVELSCACPEGSRFDLNDVYVYWQTSESKTVVTYHIPQVSSLETVDSRYRNRALMSPAGMLRGDFSLRLFNVTPQDEQKFHCLVLSLSLGFQEVLSVEVTLHVAANFSVPVVSAPHSPSQDELTFTCTSINGYPRPNVYWINKTDNSLLDQALQNDTVFLNMRGLYDVVSVLRIARTPSVNIGCCIENVLLQQNLTVGSQTGNDIGERDKITENPVSTGEKNAAT
As for B5, the MFI in the test with CD28 (human) [1] was 6200 MFI; in test [2] it was 11500 MFI; in test [3] it was 29200 MFI. Also, the MFI ratio to WT (ΔWT) came to 0.3 fold with CD28 (human) [1], 0.03 fold in test [2] and 0.14 fold in test [3].

B6: ICOSL-Fc N52G/N57V (Fc fusion)
chain: DTQEKEVRAMVGSDVELSCACPEGSRFDLNDVYVYWQTSESKTVVTYHIPQGSSLEVVDSRYRNRALMSPAGMLRGDFSLRLFNVTPQDEQKFHCLVLSQSLGFQEVLSVEVTLHVAANFSVPVVSAPHSPSQDELTFTCTSINGYPRPNVYWINKTDNSLLDQALQNDTVFLNMRGLYDVVSVLRIARTPSVNIGCCIENVLLQQNLTVGSQTGNDIGERDKITENPVSTGEKNAAT
Regarding B6, the values for the MFI (with CD28 (human) [1]; in test [2]; in test [3]) were 69100 MFI, 52500 MFI and 332000 MFI, respectively. Further, the MFI ratio to WT (ΔWT) worked out at 3.1 fold with CD28 (human) [1], 0.16 fold in test [2] and 1.57 fold in test [3].

B7: variant CD80 A12V/S15F/Y31H/M38L/T41G/M43L/D90N/T130A/P137L/N149D/N152T (Fc fusion)
chain: VIHVTKEVKEVVTLFCGHNVSVEELAQTRIHWQKEKKLVLGMLSGDMNIWPEYKNRTIFDITNNLSIVILALRPSDEGTYECVVLKYEKNAFKREHLAEVTLSVKADFPTPSISDFEIPTSNIRRIICSASGGFPELHLSWLENGEELDAITTTVSQDPETELYAVSSKLDFNMTTNHSFMCLIKYGHLRVNQTFNWNTTKQEHFPDN
Turning to B7, the figures for the MFI in the test with CD28 (human) [4], with PD-L1 (human) and with CTLA-4 (human) were 6 MFI, 5 MFI and 6 MFI, respectively. Moreover, the parental ratio with CD28 (human) [4] was 0.06; in the test with PD-L1 (human) it was 0.08; with CTLA-4 (human), 0.03.

B8: variant CD80 V4M/L70Q/A91G/I118V/T120S/T130A/K169E (Fc fusion)
chain: VIHMTKEVKEVATLSCGHNVSVEELAQTRIYWQKEKKMVLTMMSGDMNIWPEYKNRTIFDITNNLSIVIQALRPSDEGTYECVVLKYEKDGFKREHLAEVTLSVKADFPTPSISDFEVPSSNIRRIICSASGGFPEPHLSWLENGEELNAINTTVSQDPETELYAVSSELDFNMTTNHSFMCLIKYGHLRVNQTFNWNTTKQEHFPDN
With B8, the MFI with CD28 (human) [4] turned out to be 89 MFI; with PD-L1 (human) it was 6 MFI; with CTLA-4 (human), 263 MFI. In addition, the parental ratio with CD28 (human) [4] is 0.94; with PD-L1 (human), 0.09; with CTLA-4 (human), 1.26.

B9: variant CD80 K54M/L70Q/A91G/Y164H (Fc fusion)
chain: VIHVTKEVKEVATLSCGHNVSVEELAQTRIYWQKEKKMVLTMMSGDMNIWPEYMNRTIFDITNNLSIVIQALRPSDEGTYECVVLKYEKDGFKREHLAEVTLSVKADFPTPSISDFEIPTSNIRRIICSTSGGFPEPHLSWLENGEELNAINTTVSQDPETELHAVSSKLDFNMTTNHSFMCLIKYGHLRVNQTFNWNTTKQEHFPDN
As for B9, the MFI with CD28 (human) [4] was found to be 68 MFI; with PD-L1 (human), 5 MFI; with CTLA-4 (human), 131 MFI. Besides, the values for the parental ratio in the test with CD28 (human) [4], with PD-L1 (human) and with CTLA-4 (human) were 0.71, 0.08 and 0.63, respectively.

B10: variant CD80 A91G/L102S (Fc fusion)
chain: VIHVTKEVKEVATLSCGHNVSVEELAQTRIYWQKEKKMVLTMMSGDMNIWPEYKNRTIFDITNNLSIVILALRPSDEGTYECVVLKYEKDGFKREHLAEVTSSVKADFPTPSISDFEIPTSNIRRIICSTSGGFPEPHLSWLENGEELNAINTTVSQDPETELYAVSSKLDFNMTTNHSFMCLIKYGHLRVNQTFNWNTTKQEHFPDN
As for B10, the MFI with CD28 (human) [4] stood at 6 MFI; with PD-L1 (human) it was 5 MFI; in the test with CTLA-4 (human), 6 MFI. For the same molecule, the parental ratio in the test with CD28 (human) [4] is 0.06; with PD-L1 (human), 0.08; with CTLA-4 (human) it was 0.03.

B11: variant CD80 V22A/L70Q/S121P (Fc fusion)
chain: VIHVTKEVKEVATLSCGHNVSAEELAQTRIYWQKEKKMVLTMMSGDMNIWPEYKNRTIFDITNNLSIVIQALRPSDEGTYECVVLKYEKDAFKREHLAEVTLSVKADFPTPSISDFEIPTPNIRRIICSTSGGFPEPHLSWLENGEELNAINTTVSQDPETELYAVSSKLDFNMTTNHSFMCLIKYGHLRVNQTFNWNTTKQEHFPDN
B11: the MFI was determined as 5 MFI with CD28 (human) [4], 5 MFI with PD-L1 (human) and 7 MFI with CTLA-4 (human). Also, the parental ratio with CD28 (human) [4] was determined as 0.06; with PD-L1 (human), 0.07; with CTLA-4 (human), 0.04.

B12: variant CD80 S44P/L70Q/A91G/T130A (Fc fusion)
chain: VIHVTKEVKEVATLSCGHNVSVEELAQTRIYWQKEKKMVLTMMPGDMNIWPEYKNRTIFDITNNLSIVIQALRPSDEGTYECVVLKYEKDGFKREHLAEVTLSVKADFPTPSISDFEIPTSNIRRIICSASGGFPEPHLSWLENGEELNAINTTVSQDPETELYAVSSKLDFNMTTNHSFMCLIKYGHLRVNQTFNWNTTKQEHFPDN
On to B12, for which the MFI with CD28 (human) [4] is 88 MFI; with PD-L1 (human), 5 MFI; with CTLA-4 (human) it was 134 MFI. In addition, the values for the parental ratio in the test with CD28 (human) [4], with PD-L1 (human) and with CTLA-4 (human) were 0.92, 0.07 and 0.64, respectively.

B13: variant CD80 L70Q/A91G/T110A/I118V/T120S/T130A (Fc fusion)
chain: VIHVTKEVKEVATLSCGHNVSVEELAQTRIYWQKEKKMVLTMMSGDMNIWPEYKNRTIFDITNNLSIVIQALRPSDEGTYECVVLKYEKDGFKREHLAEVTLSVKADFPAPSISDFEVPSSNIRRIICSASGGFPEPHLSWLENGEELNAINTTVSQDPETELYAVSSKLDFNMTTNHSFMCLIKYGHLRVNQTFNWNTTKQEHFPDN
Take B13: the MFI is 8 MFI with CD28 (human) [4], 5 MFI with PD-L1 (human) and 14 MFI with CTLA-4 (human). Further, the results for the parental ratio with CD28 (human) [4], with PD-L1 (human) and with CTLA-4 (human) were 0.09, 0.07 and 0.07, respectively.

B14: variant CD80 K37E/F59S/L70Q/A91G/T120S/T130A (Fc fusion)
chain: VIHVTKEVKEVATLSCGHNVSVEELAQTRIYWQKEKEMVLTMMSGDMNIWPEYKNRTISDITNNLSIVIQALRPSDEGTYECVVLKYEKDGFKREHLAEVTLSVKADFPTPSISDFEIPSSNIRRIICSASGGFPEPHLSWLENGEELNAINTTVSQDPETELYAVSSKLDFNMTTNHSFMCLIKYGHLRVNQTFNWNTTKQEHFPDN
In the case of B14, the MFI in the test with CD28 (human) [4] is 20 MFI; with PD-L1 (human) it was 6 MFI; with CTLA-4 (human) it was 74 MFI. For the same molecule, the results for the parental ratio with CD28 (human) [4], in the test with PD-L1 (human) and in the test with CTLA-4 (human) were 0.21, 0.08 and 0.36, respectively.

B15: variant CD80 L70Q/A91G/I118V/T120S/T130A/K169E (Fc fusion)
chain: VIHVTKEVKEVATLSCGHNVSVEELAQTRIYWQKEKKMVLTMMSGDMNIWPEYKNRTIFDITNNLSIVIQALRPSDEGTYECVVLKYEKDGFKREHLAEVTLSVKADFPTPSISDFEVPSSNIRRIICSASGGFPEPHLSWLENGEELNAINTTVSQDPETELYAVSSELDFNMTTNHSFMCLIKYGHLRVNQTFNWNTTKQEHFPDN
As to B15, the MFI in the test with PD-L1 (human) is 6 MFI.
